Data reported in PMC8149476 (Cell Reports Medicine, 2021).

Legend:
[1] = biological target: human NOTCH3 NRR_AviHis recombinant protein (Homo sapiens, UniProt Q9UM47); test: SPR
[2] = biological target: NOTCH3 endogenous on MDA-MB-468 cells (human (endogenous in MDA-MB-468), UniProt Q9UM47); test: immunostaining of cells or tissue
[3] = biological target: mouse NOTCH3 (mN3) expressed on U2OS cells (U2OS-mN3) (mouse, UniProt Q61982); test: ELISA
[4] = biological target: human NOTCH3 receptor expressed on U2OS cells (U2OS-hN3) (human, UniProt Q9UM47); test: ELISA
[5] = biological target: human NOTCH1 receptor expressed on U2OS cells (U2OS-hN1) (Homo sapiens, UniProt P46531); test: ELISA
[6] = biological target: mouse NOTCH1 receptor expressed on U2OS cells (U2OS-mN1) (Mus musculus, UniProt Q01705); test: ELISA

Sequence of human NOTCH3 receptor expressed on U2OS cells (U2OS-hN3) (Q9UM47 40-2321): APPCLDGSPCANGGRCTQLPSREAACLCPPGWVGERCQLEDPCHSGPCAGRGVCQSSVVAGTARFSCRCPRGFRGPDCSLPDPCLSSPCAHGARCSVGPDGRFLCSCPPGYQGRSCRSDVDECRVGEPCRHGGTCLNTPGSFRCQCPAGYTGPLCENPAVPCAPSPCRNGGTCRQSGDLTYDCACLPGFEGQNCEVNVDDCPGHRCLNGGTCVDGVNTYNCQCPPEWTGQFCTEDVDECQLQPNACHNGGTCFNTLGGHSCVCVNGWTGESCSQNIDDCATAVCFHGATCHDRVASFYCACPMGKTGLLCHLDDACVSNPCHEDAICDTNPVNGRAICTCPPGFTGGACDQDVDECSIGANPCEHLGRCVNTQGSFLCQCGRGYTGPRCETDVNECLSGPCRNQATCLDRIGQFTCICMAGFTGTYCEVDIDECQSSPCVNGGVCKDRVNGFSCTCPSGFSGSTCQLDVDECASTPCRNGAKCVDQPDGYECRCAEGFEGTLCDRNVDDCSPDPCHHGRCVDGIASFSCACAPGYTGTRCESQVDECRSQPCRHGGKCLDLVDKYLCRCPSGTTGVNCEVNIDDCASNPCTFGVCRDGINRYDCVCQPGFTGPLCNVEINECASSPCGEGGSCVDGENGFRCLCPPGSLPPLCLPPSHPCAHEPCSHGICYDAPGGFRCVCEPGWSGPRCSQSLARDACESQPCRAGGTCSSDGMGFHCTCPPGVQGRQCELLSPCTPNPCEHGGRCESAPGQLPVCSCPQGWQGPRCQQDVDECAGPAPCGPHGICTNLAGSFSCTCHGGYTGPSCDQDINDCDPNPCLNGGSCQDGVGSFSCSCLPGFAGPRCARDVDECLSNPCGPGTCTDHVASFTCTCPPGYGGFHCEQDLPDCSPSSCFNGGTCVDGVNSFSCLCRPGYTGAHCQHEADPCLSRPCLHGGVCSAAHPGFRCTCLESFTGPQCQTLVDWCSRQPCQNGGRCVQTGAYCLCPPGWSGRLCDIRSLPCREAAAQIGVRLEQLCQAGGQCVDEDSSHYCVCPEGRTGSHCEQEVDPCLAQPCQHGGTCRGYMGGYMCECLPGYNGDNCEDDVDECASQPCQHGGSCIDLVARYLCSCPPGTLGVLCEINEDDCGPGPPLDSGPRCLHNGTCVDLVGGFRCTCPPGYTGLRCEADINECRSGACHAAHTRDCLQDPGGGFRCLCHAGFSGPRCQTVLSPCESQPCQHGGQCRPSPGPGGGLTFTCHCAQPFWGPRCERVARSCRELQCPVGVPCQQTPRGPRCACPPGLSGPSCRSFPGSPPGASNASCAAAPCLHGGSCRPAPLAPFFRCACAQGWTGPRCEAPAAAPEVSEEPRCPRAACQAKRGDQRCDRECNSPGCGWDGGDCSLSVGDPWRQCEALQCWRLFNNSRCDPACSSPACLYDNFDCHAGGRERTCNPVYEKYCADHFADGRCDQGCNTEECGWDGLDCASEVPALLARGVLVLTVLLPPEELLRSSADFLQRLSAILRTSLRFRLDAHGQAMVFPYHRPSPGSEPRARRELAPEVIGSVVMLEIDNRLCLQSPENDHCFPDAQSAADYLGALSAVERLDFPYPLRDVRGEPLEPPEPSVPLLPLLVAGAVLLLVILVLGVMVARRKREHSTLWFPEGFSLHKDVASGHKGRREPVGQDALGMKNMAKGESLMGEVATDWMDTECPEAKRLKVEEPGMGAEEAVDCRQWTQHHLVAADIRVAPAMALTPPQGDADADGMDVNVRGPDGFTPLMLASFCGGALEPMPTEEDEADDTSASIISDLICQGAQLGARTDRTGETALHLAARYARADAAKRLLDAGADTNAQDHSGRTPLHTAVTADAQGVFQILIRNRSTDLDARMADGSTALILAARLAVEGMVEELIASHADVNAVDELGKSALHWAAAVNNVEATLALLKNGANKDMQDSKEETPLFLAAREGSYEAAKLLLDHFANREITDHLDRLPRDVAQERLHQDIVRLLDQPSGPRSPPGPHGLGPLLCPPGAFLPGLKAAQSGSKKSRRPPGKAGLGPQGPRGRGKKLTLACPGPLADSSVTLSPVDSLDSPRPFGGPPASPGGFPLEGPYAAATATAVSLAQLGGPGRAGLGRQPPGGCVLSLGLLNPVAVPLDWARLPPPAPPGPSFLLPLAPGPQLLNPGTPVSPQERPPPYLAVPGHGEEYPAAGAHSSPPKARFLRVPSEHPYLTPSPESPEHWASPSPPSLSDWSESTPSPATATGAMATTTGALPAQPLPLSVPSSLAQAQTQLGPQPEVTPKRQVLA
Sequence of mouse NOTCH3 (mN3) expressed on U2OS cells (U2OS-mN3) (Q61982 40-2318): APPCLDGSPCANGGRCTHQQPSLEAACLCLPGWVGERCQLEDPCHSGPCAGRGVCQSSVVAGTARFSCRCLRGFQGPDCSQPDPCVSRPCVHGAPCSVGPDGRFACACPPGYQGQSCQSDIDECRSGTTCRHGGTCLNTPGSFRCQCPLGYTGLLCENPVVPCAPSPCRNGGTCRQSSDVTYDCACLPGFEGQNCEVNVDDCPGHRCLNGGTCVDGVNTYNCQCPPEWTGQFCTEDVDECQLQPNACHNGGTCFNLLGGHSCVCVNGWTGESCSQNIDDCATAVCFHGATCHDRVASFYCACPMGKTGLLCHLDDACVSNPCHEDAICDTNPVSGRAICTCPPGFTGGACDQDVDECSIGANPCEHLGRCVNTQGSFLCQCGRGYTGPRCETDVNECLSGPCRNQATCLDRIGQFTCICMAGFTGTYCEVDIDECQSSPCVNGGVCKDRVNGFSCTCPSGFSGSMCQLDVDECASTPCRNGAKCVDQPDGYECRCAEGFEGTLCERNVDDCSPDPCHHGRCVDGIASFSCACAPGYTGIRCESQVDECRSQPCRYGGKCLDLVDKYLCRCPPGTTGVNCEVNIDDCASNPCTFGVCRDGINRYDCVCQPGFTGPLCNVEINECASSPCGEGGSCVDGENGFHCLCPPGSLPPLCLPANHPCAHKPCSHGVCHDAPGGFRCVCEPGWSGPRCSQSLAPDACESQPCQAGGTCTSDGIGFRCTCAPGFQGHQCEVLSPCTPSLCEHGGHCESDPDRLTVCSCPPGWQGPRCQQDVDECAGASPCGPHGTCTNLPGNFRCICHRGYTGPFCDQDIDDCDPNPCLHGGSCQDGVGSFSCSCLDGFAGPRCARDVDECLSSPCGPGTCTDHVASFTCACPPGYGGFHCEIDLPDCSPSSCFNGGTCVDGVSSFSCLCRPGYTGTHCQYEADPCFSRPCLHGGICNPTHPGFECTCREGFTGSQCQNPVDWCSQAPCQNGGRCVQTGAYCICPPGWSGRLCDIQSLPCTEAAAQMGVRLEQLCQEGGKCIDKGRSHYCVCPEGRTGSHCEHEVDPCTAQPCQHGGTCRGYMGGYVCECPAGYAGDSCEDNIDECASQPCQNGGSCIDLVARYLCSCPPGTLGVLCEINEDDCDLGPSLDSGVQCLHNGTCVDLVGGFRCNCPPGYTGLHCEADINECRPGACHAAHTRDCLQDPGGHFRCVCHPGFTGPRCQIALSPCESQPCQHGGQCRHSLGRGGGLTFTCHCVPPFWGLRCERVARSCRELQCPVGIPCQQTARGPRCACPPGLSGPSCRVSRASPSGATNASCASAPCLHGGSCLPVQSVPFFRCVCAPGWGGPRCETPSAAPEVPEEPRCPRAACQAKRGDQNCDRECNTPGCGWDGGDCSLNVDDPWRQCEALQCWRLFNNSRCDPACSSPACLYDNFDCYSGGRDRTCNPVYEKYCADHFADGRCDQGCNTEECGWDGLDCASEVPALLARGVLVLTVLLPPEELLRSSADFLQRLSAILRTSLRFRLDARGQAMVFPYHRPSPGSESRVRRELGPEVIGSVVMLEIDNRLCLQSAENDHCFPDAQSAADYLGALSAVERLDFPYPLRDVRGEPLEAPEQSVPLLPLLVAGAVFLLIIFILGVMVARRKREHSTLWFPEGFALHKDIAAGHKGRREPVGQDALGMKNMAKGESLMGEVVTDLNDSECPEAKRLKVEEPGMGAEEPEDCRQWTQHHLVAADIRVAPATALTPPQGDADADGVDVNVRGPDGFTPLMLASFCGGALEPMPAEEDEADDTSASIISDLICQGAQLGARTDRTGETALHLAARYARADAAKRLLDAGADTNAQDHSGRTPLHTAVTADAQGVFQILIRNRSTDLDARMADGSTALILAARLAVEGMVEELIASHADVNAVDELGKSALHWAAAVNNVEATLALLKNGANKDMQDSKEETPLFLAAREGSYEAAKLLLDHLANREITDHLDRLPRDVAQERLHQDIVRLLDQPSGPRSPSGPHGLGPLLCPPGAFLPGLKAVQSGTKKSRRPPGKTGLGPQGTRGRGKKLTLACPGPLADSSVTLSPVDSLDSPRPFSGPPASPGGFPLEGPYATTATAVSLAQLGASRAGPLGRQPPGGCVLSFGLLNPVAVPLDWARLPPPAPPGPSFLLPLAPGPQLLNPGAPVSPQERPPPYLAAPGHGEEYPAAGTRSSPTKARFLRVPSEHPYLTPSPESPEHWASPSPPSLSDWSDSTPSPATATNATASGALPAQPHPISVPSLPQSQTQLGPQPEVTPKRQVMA
Sequence of NOTCH3 endogenous on MDA-MB-468 cells (Q9UM47 40-2321): as the sequence (Q9UM47 40-2321) above

| Binder | binding result [1] | binding result [2] | binding result [3] | binding result [4] | binding result [5] | binding result [6] |
| --- | --- | --- | --- | --- | --- | --- |
| anti-NOTCH3 inhibitory (anti-N3(i)) mAb clone 75 (antibody, V domains shown) VH: EVQLVESGGGLVQPGGSLRLSCAASGYAFTDYWMTWVRQAPGKGLEWVAEISPNSGGTNFNEKFKGRFTISVDNAKNSLYLQMNSLRAEDTAVYYCARGEIRYNWFAYWGQGTLVTVSS VL: DIQMTQSPSSLSASVGDRVTITCKASQNVGNNIAWYQQKPGKAPKLLIYYASNRYTGVPSRFSGSGYGTDFTLTISSLQPEDFATYYCQRLYNSPFTFGGGTKVEIK | binds | binds | no binding | binds | no binding | no binding |
| Anti-N3(i)-vc0101 ADC (antibody, V domains shown) VH: EVQLVESGGGLVQPGGSLRLSCAASGYAFTDYWMTWVRQAPGKGLEWVAEISPNSGGTNFNEKFKGRFTISVDNAKNSLYLQMNSLRAEDTAVYYCARGEIRYNWFAYWGQGTLVTVSS VL: DIQMTQSPSSLSASVGDRVTITCKASQNVGNNIAWYQQKPGKAPKLLIYYASNRYTGVPSRFSGSGYGTDFTLTISSLQPEDFATYYCQRLYNSPFTFGGGTKVEIK |  |  |  | binds |  |  |
